Assay results published in patent publication US20110250130A1 (AbbVie / Abbott, published 2011).

Assays:
[1] = biological target: T1, Recombinant Human TNF-α/TNFSF1A (human, UniProt P01375 77-233); assay: cell-based or functional assay
[2] = biological target: T1, Recombinant Human TNF-α/TNFSF1A; assay: SPR (Biacore), antibody captured, TNF-α in solution
Procedure: The BIACORE assay (Biacore, Inc. Piscataway, N.J.) determines the affinity of antibodies with kinetic measurements of on-rate and off-rate constants. Binding of antibodies to a target antigen (for example, a purified recombinant target antigen) is determined by surface plasmon resonance-based measurements with a Biacore® 1000 or 3000 instrument (Biacore® AB, Uppsala, Sweden) using running HBS-EP (10 mM HEPES [pH 7.4], 150 mM NaCl, 3 mM EDTA, and 0.005% surfactant P20) at 25° C. All chemicals are obtained from Biacore® AB (Uppsala, Sweden) or otherwise from a different source as described in the text. For example, approximately 5000 RU of goat anti-mouse IgG, (Fcγ), fragment specific polyclonal antibody (Pierce Biotechnology Inc, Rockford, Ill., US) diluted in 10 mM sodium acetate (pH 4.5) is directly immobilized across a CM5 research grade biosensor chip using a standard amine coupling kit according to manufacturer's instructions and procedures at 25 μg/ml. Unreacted moieties on the biosensor surface are blocked with ethanolamine. Modified carboxymethyl dextran surface in flowcell 2 and 4 is used as a reaction surface. Unmodified carboxymethyl dextran without goat anti-mouse IgG in flow cell 1 and 3 is used as the reference surface. For kinetic analysis, rate equations derived from the 1:1 Langmuir binding model are fitted simultaneously to association and dissociation phases of all eight injections (using global fit analysis) with the use of Biaevaluation 4.0.1 software. Purified antibodies are diluted in HEPES-buffered saline for capture across goat anti-mouse IgG specific reaction surfaces. Antibodies to be captured as a ligand (25 μg/ml) are injected over reaction matrices at a flow rate of 5 μl/minute. The association and dissociation rate constants, kₒₙ (M⁻¹s⁻¹) and koff (s⁻¹), are determined under a continuous flow rate of 25 μl/minute. Rate constants are derived by making kinetic binding measurements at different antigen concentrations ranging from 10-200 nM. The equilibrium dissociation constant (M) of the reaction between antibodies and the target antigen is then calculated from the kinetic rate constants by the following formula: KD=koff/kₒₙ. Binding is recorded as a function of time and kinetic rate constants are calculated. In this assay, on-rates as fast as 10⁶ M⁻¹s⁻¹ and off-rates as slow as 10⁻⁶ s⁻¹ can be measured.

T1 sequence (P01375 77-233 limits assumed): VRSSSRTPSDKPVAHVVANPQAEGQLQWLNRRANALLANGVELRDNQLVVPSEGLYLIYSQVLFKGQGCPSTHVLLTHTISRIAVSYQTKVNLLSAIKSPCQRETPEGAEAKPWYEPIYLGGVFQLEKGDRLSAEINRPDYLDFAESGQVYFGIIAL

| TNF-α neutralization assay IC50 (nM), L929 cells [1] [nM] | Kd [2] [nM] | koff [2] [s⁻¹] | kon [2] [M⁻¹ s⁻¹] | Binder |
| --- | --- | --- | --- | --- |
| 0.071 | 0.0677 | 0.000203 | 3e+06 | AB259 (antibody, V domains shown, also called hMAK195VH.2a / hMAK195VL.2a) VH: EVQLVESGGGLVQPGGSLRLSCAVSGFTLSDYGVNWVRQAPGKGLEWLGMIWGDGSTDYDSTLKSRLTISKDNSKSTIYLQMNSLRAEDTAVYYCAREWHHGPVAYWGQGTLVTVSS VL: EIVMTQSPATLSLSPGERATLSCKASQAVSSAVAWYQQKPGQSPRLLIYWASTRHTGVPARFSGSGSGTDFTLTISSLQPEDFAVYYCQQHYSTPFTFGQGTKLEIK |
| 0.193 | 0.169 | 0.000273 | 1.61e+06 | AB263 (antibody, V domains shown, also called hMAK195VH.2b / hMAK195VL.2a) VH: EVQLVESGGGLVQPGGSLRLSCAASGFTLSDYGVNWVRQAPGKGLEWVSMIWGDGSTDYDSTLKSRFTISKDNSKNTLYLQMNSLRAEDTAVYYCAREWHHGPVAYWGQGTLVTVSS VL: EIVMTQSPATLSLSPGERATLSCKASQAVSSAVAWYQQKPGQSPRLLIYWASTRHTGVPARFSGSGSGTDFTLTISSLQPEDFAVYYCQQHYSTPFTFGQGTKLEIK |
